Test system: E. necator
Assay: Leaf disc assay, dry inoculum (settling tower), decrease in disease severity / hyphal growth (Example 2)
Conditions: decrease in disease severity (hyphal growth) relative to untreated control, value ± SE; for % decrease =/− SE TP1: time point 1 (untreated control hyphal growth ≥50%); for % decrease =/− SE TP2: time point 2

| Molecule | % decrease =/− SE TP1 [%] | % decrease =/− SE TP2 [%] |
| --- | --- | --- |
| GS3526 (nucleic acid) sense: UAUCCCUGAUUUCUAUAGUCUGAUGAAGAAUGAUUUUUGUAGGCAAUAGACUUUCUUCUCUUCCCAGAACAGCAGCUUCUACAGCAUCCACAACAGCUUAGGAAAGAGAAGCAAGAACAACAAAAUGAGUAUCCAAAGCACAAGCAGCGUGUCAUACAAAUGAUAAUUGAGAGGACUAUUAAGCCACCGAUAACAAGUCCGAUUAUUGCUGGCCAUUUGCAAUAAAUUUGUAUCAUGCAUUUAUCCCAGUUGGUGAAUGAAGAAGUAACGUUUGAUACUUGAUUAGUUAAUUGAUCACUCAACUGAUCACUUACAAGCCUUGGCCUAAGCAAACUAAUCUCCAAAAAAUUCAUGUUUCCAAUAUUAACACCUCCGUGAUCUUCAUUAAAUAAGUAA antisense: UUACUUAUUUAAUGAAGAUCACGGAGGUGUUAAUAUUGGAAACAUGAAUUUUUUGGAGAUUAGUUUGCUUAGGCCAAGGCUUGUAAGUGAUCAGUUGAGUGAUCAAUUAACUAAUCAAGUAUCAAACGUUACUUCUUCAUUCACCAACUGGGAUAAAUGCAUGAUACAAAUUUAUUGCAAAUGGCCAGCAAUAAUCGGACUUGUUAUCGGUGGCUUAAUAGUCCUCUCAAUUAUCAUUUGUAUGACACGCUGCUUGUGCUUUGGAUACUCAUUUUGUUGUUCUUGCUUCUCUUUCCUAAGCUGUUGUGGAUGCUGUAGAAGCUGCUGUUCUGGGAAGAGAAGAAAGUCUAUUGCCUACAAAAAUCAUUCUUCAUCAGACUAUAGAAAUCAGGGAUA | 22 ± 10 | 11 ± 10 |
| GS3606 (nucleic acid) sense: UAAGGUUGUGUCGGACAACACGAUUCAUACGAGCACUCCCGUCAUCUAAAUCAUCAUCUGCGAGUACAAUUAAAACAGUAUCCUUUCGCUUCUUCCCCUUAACUAGGACAGUAUCUCCACGAAAAAGCUGCAAAGUUUCCAUGGUAUUAUUUGACAGUGCAAUAACAGAGUUAUCAUCGUUGAUGGCAUCUGUUACAAUUAAGGAAUUUGGCUUUUUCUUCUUUUUUAAAAUAGCAGUCGCAGUAGCAUCAAUCGUCUUUUGUUCAGCGCCAGAGGCAUCCUCAAGUUUAACUGUUUUUU antisense: AAAAAACAGUUAAACUUGAGGAUGCCUCUGGCGCUGAACAAAAGACGAUUGAUGCUACUGCGACUGCUAUUUUAAAAAAGAAGAAAAAGCCAAAUUCCUUAAUUGUAACAGAUGCCAUCAACGAUGAUAACUCUGUUAUUGCACUGUCAAAUAAUACCAUGGAAACUUUGCAGCUUUUUCGUGGAGAUACUGUCCUAGUUAAGGGGAAGAAGCGAAAGGAUACUGUUUUAAUUGUACUCGCAGAUGAUGAUUUAGAUGACGGGAGUGCUCGUAUGAAUCGUGUUGUCCGACACAACCUUA | 3 ± 6 | 9 ± 7 |
| GS3610 (nucleic acid) sense: AUCAAACUGGGAGAGAUCAGAAACUAAGCUUGUGGAGCUGUGAAUCUUAACAGGGGUGUAAGCAUUUAGUUCCGAAACUCGUUGAGCUGAGACAAUAUCUCUAGGUUUUCCUAUAUCUUCUGGGUUAAGAAAGAAUUGAGAUGAUAGGUCAGCGAUAGUUGCGGGAGCGGGAUCGUAUAAUGUUAGACUUUUAACUCCAGCCAGAGCUAUAUUCUUAGCUAUUUCGAUACCAAGACCUUUCAAGCCAAUAAUAAGAAUAUUCGAUGCACUCAUUCGUUUCAUAGCCUCGUGUCCAAGAAC antisense: GUUCUUGGACACGAGGCUAUGAAACGAAUGAGUGCAUCGAAUAUUCUUAUUAUUGGCUUGAAAGGUCUUGGUAUCGAAAUAGCUAAGAAUAUAGCUCUGGCUGGAGUUAAAAGUCUAACAUUAUACGAUCCCGCUCCCGCAACUAUCGCUGACCUAUCAUCUCAAUUCUUUCUUAACCCAGAAGAUAUAGGAAAACCUAGAGAUAUUGUCUCAGCUCAACGAGUUUCGGAACUAAAUGCUUACACCCCUGUUAAGAUUCACAGCUCCACAAGCUUAGUUUCUGAUCUCUCCCAGUUUGAU | 10 ± 6 | 5 ± 6 |
| GS3601 (nucleic acid) sense: CAAUUGCUGCAGCAUGACCUUCUCUUGGAACCGGUAUAUAUCCUAUGCAGUCCAAAAGAGUCCAGGAGUUCGGUAUCGGAUCAUAACACCAAACAUCGUUAUACCAUUGAAGACCAUUUGUUCCGCCAAACAAGUAAAGCUUUUCAUUAUAUGUCACAACUGAGUGAUUUGUUCUAGCUGAUGGUAUUUGUCCUACUGGGGGUCCACCAUCCUCACUAUUUUUAAUGAGAAUUUCCCACCUGUUCGUAGGGACUUGCAAAAGAUUCAAAUCAAAAGCCACAAGGUCAUUCAUAAAAUAACCCUCUACUUGCCCCCCGAAUACGUAGAUUUUAGACCCUAGUAUAUUGAGAGAAUGACCAUAACGCCCCGCGGGCCGUGGCCCGGCAGGUAUAGCUCUGGA antisense: UCCAGAGCUAUACCUGCCGGGCCACGGCCCGCGGGGCGUUAUGGUCAUUCUCUCAAUAUACUAGGGUCUAAAAUCUACGUAUUCGGGGGGCAAGUAGAGGGUUAUUUUAUGAAUGACCUUGUGGCUUUUGAUUUGAAUCUUUUGCAAGUCCCUACGAACAGGUGGGAAAUUCUCAUUAAAAAUAGUGAGGAUGGUGGACCCCCAGUAGGACAAAUACCAUCAGCUAGAACAAAUCACUCAGUUGUGACAUAUAAUGAAAAGCUUUACUUGUUUGGCGGAACAAAUGGUCUUCAAUGGUAUAACGAUGUUUGGUGUUAUGAUCCGAUACCGAACUCCUGGACUCUUUUGGACUGCAUAGGAUAUAUACCGGUUCCAAGAGAAGGUCAUGCUGCAGCAAUUG | – | 2 ± 3 |
| GS3603 (nucleic acid) sense: AGUCCAAAAGAGUCCAGGAGUUCGGUAUCGGAUCAUAACACCAAACAUCGUUAUACCAUUGAAGACCAUUUGUUCCGCCAAACAAGUAAAGCUUUUCAUUAUAUGUCACAACUGAGUGAUUUGUUCUAGCUGAUGGUAUUUGUCCUACUGGGGGUCCACCAUCCUCACUAUUUUUAAUGAGAAUUUCCCACCUGUUCGUAGGGACUUGCAAAAGAUUCAAAUCAAAAGCCACAAGGUCAUUCAUAAAAUAACCCUCUACUUGCCCCCCGAAUACGUAGAUUUUAGACCCUAGUAUAUUGA antisense: UCAAUAUACUAGGGUCUAAAAUCUACGUAUUCGGGGGGCAAGUAGAGGGUUAUUUUAUGAAUGACCUUGUGGCUUUUGAUUUGAAUCUUUUGCAAGUCCCUACGAACAGGUGGGAAAUUCUCAUUAAAAAUAGUGAGGAUGGUGGACCCCCAGUAGGACAAAUACCAUCAGCUAGAACAAAUCACUCAGUUGUGACAUAUAAUGAAAAGCUUUACUUGUUUGGCGGAACAAAUGGUCUUCAAUGGUAUAACGAUGUUUGGUGUUAUGAUCCGAUACCGAACUCCUGGACUCUUUUGGACU | – | 7 ± 5 |
| GS3602 (nucleic acid) sense: CUUGGAACCGGUAUAUAUCCUAUGCAGUCCAAAAGAGUCCAGGAGUUCGGUAUCGGAUCAUAACACCAAACAUCGUUAUACCAUUGAAGACCAUUUGUUCCGCCAAACAAGUAAAGCUUUUCAUUAUAUGUCACAACUGAGUGAUUUGUUCUAGCUGAUGGUAUUUGUCCUACUGGGGGUCCACCAUCCUCACUAUUUUUAAUGAGAAUUUCCCACCUGUUCGUAGGGACUUGCAAAAGAUUCAAAUCAAAAGCCACAAGGUCAUUCAUAAAAUAACCCUCUACUUGCCCCCCGAAUACGUAGAUUUUAGACCCUAGUAUAUUGAGAGAAUGACCAUAACGCCCCGCGGG antisense: CCCGCGGGGCGUUAUGGUCAUUCUCUCAAUAUACUAGGGUCUAAAAUCUACGUAUUCGGGGGGCAAGUAGAGGGUUAUUUUAUGAAUGACCUUGUGGCUUUUGAUUUGAAUCUUUUGCAAGUCCCUACGAACAGGUGGGAAAUUCUCAUUAAAAAUAGUGAGGAUGGUGGACCCCCAGUAGGACAAAUACCAUCAGCUAGAACAAAUCACUCAGUUGUGACAUAUAAUGAAAAGCUUUACUUGUUUGGCGGAACAAAUGGUCUUCAAUGGUAUAACGAUGUUUGGUGUUAUGAUCCGAUACCGAACUCCUGGACUCUUUUGGACUGCAUAGGAUAUAUACCGGUUCCAAG | 5 ± 6 | 7 ± 8 |
| GS3609 (nucleic acid) sense: CUGUCAAUAUUACAGCUUGAUAUGAAUCAAACUGGGAGAGAUCAGAAACUAAGCUUGUGGAGCUGUGAAUCUUAACAGGGGUGUAAGCAUUUAGUUCCGAAACUCGUUGAGCUGAGACAAUAUCUCUAGGUUUUCCUAUAUCUUCUGGGUUAAGAAAGAAUUGAGAUGAUAGGUCAGCGAUAGUUGCGGGAGCGGGAUCGUAUAAUGUUAGACUUUUAACUCCAGCCAGAGCUAUAUUCUUAGCUAUUUCGAUACCAAGACCUUUCAAGCCAAUAAUAAGAAUAUUCGAUGCACUCAUUCGUUUCAUAGCCUCGUGUCCAAGAACGUAGAGUUGCCUACUGUAUAAAGAC antisense: GUCUUUAUACAGUAGGCAACUCUACGUUCUUGGACACGAGGCUAUGAAACGAAUGAGUGCAUCGAAUAUUCUUAUUAUUGGCUUGAAAGGUCUUGGUAUCGAAAUAGCUAAGAAUAUAGCUCUGGCUGGAGUUAAAAGUCUAACAUUAUACGAUCCCGCUCCCGCAACUAUCGCUGACCUAUCAUCUCAAUUCUUUCUUAACCCAGAAGAUAUAGGAAAACCUAGAGAUAUUGUCUCAGCUCAACGAGUUUCGGAACUAAAUGCUUACACCCCUGUUAAGAUUCACAGCUCCACAAGCUUAGUUUCUGAUCUCUCCCAGUUUGAUUCAUAUCAAGCUGUAAUAUUGACAG | 13 ± 8 | 9 ± 6 |
| GS3525 (nucleic acid) sense: CUGGAAUUGUUGCACUGGCCAUGUAAAGCAGUUUAUGACUCGUCUAAAUAUUUAAUUACGGCUAUGCACGGAGAGCUUGGGGUUACUGUUUUUUUUUCUCAAAAAUAUGCCGGUGGGAUUCGAAUUGGUCCGGAUAUUUUUUCUGUAAAUAAUUGAGUGACGGCUUUGUACUCGUGAUAAUUACAGACAAAUCUAAUAUAAUGUGCUUAUCCUUCUAACGAACUUCGGAGAAUGAUUUGUUUUAUUGAGUGAUUAGUUGACUUGUUUUAUUAGUUAUGGUUAUCAAACGAUCACAUAAAAAAACGCAUACUUUUUACAAUGAAGUGAUUGUAUACCAAUGUUUCCCUUGGUGGCCCUCAAAAAACUAAGUUAGAUAGAU antisense: AUCUAUCUAACUUAGUUUUUUGAGGGCCACCAAGGGAAACAUUGGUAUACAAUCACUUCAUUGUAAAAAGUAUGCGUUUUUUUAUGUGAUCGUUUGAUAACCAUAACUAAUAAAACAAGUCAACUAAUCACUCAAUAAAACAAAUCAUUCUCCGAAGUUCGUUAGAAGGAUAAGCACAUUAUAUUAGAUUUGUCUGUAAUUAUCACGAGUACAAAGCCGUCACUCAAUUAUUUACAGAAAAAAUAUCCGGACCAAUUCGAAUCCCACCGGCAUAUUUUUGAGAAAAAAAAACAGUAACCCCAAGCUCUCCGUGCAUAGCCGUAAUUAAAUAUUUAGACGAGUCAUAAACUGCUUUACAUGGCCAGUGCAACAAUUCCAG | 17 ± 9 | 34 ± 8 |

— patent US12077763B2, “RNA-based control of powdery mildew” (Greenlight Biosciences, Inc., priority 2021, dated 2024)
